Here are results for seven molecules from paper PMC11804915, “Single-stranded DNA binding to the transcription factor PafBC triggers the mycobacterial DNA damage response”.

For data set [1], the target named is T1, PafBC WT (Mycobacterium smegmatis, UniProt A4ZHT0;A0QZ41 1-331;1-318).
T1 sequence 1: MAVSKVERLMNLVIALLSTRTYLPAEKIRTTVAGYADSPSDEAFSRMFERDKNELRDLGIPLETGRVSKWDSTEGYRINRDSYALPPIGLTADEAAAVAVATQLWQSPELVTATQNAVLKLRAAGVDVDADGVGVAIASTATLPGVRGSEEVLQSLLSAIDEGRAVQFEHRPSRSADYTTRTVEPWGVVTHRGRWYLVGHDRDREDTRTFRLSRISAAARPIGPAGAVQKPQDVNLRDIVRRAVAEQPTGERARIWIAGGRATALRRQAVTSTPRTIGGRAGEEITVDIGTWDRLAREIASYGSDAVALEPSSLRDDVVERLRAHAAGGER
T1 sequence 2: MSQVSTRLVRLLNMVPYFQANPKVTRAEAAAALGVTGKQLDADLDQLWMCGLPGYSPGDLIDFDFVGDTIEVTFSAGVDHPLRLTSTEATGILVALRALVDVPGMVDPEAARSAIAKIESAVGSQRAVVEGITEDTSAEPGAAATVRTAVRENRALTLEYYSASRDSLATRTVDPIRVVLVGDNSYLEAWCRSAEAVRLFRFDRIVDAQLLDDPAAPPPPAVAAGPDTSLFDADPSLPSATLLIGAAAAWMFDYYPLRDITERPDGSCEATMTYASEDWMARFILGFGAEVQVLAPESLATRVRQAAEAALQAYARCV
The experiment in a line: EMSA; ssDNA EMSA: 22.5 mM Hepes-KOH pH 7.8, 135 mM NaCl, 20 mM KCl, 5 mM MgCl2, 1 mM DTT, 37 C 15 min, 10 nM DNA, 0-16 uM PafBC; RNAP EMSA: 20 mM Hepes-NaOH pH 8, 100 mM K-acetate, 36 mM NaCl, 10 mM MgCl2, 2 mM DTT, 37 C 30 min. The note with it: protein: recombinant, tags: C-terminal Strep on PafC, copies: 1;1, label: internal fluorescein-dT. (In EMSA bound probe runs differently from free probe, usually more slowly.)

Another data set addresses T2, PafBC WT, cryo-EM sample (Mycobacterium smegmatis, UniProt A4ZHT0;A0QZ41 1-331;1-318).
T2 sequence 1: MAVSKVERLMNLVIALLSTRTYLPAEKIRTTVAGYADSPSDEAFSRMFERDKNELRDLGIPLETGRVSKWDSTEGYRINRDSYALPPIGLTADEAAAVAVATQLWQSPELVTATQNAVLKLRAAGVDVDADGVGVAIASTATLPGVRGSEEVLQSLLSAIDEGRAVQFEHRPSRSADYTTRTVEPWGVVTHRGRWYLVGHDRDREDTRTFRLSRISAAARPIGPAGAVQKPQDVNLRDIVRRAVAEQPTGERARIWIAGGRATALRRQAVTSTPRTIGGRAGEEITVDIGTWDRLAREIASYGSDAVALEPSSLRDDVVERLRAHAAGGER
T2 sequence 2: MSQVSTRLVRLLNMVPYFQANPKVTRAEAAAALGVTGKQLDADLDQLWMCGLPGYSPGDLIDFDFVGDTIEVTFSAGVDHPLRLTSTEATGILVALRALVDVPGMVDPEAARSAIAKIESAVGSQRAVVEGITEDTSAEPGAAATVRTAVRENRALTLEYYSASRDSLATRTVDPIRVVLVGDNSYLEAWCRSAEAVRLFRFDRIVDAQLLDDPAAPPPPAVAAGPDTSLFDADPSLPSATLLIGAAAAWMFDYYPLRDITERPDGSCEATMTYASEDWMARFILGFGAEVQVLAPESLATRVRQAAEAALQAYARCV
The experiment in a line: cryo-EM; within RNAP-sigmaA promoter complex; formaldehyde-fixed; second entry 9FNE; ssDNA EMSA: 22.5 mM Hepes-KOH pH 7.8, 135 mM NaCl, 20 mM KCl, 5 mM MgCl2, 1 mM DTT, 37 C 15 min, 10 nM DNA, 0-16 uM PafBC; RNAP EMSA: 20 mM Hepes-NaOH pH 8, 100 mM K-acetate, 36 mM NaCl, 10 mM MgCl2, 2 mM DTT, 37 C 30 min. To be noted: protein: recombinant; copies: 1;1; single strand.

Data set [2] addresses RNAP-sigmaA holoenzyme with RbpA (Mycobacterium smegmatis SMR5 …, UniProt A0QSL8;P60281;A0QS66;A0QWT1;A0QW02;A0QZ11 1-350;1-1169;1-1317;1-107;1-466;1-114). The experiment in a line: EMSA; nonspecific binding; ssDNA EMSA: 22.5 mM Hepes-KOH pH 7.8, 135 mM NaCl, 20 mM KCl, 5 mM MgCl2, 1 mM DTT, 37 C 15 min, 10 nM DNA, 0-16 uM PafBC; RNAP EMSA: 20 mM Hepes-NaOH pH 8, 100 mM K-acetate, 36 mM NaCl, 10 mM MgCl2, 2 mM DTT, 37 C 30 min. The note with it: protein: native, tags: TwinStrep on RpoC, His6 removed from SigA, chain copies: 2;1;1;1;1;1, blunt.

In data set [3] the target is T1, PafBC WT. The experiment in a line: analytical gel filtration; ssDNA:PafBC stoichiometry ~1:1; ssDNA EMSA: 22.5 mM Hepes-KOH pH 7.8, 135 mM NaCl, 20 mM KCl, 5 mM MgCl2, 1 mM DTT, 37 C 15 min, 10 nM DNA, 0-16 uM PafBC; RNAP EMSA: 20 mM Hepes-NaOH pH 8, 100 mM K-acetate, 36 mM NaCl, 10 mM MgCl2, 2 mM DTT, 37 C 30 min. To be noted: protein: recombinant; tags: C-terminal Strep on PafC; copies: 1;1; single strand.

Data set [4] addresses RNAP-sigmaA holoenzyme with RbpA;CarD;PafBC, PafB WYL variant (Mycobacterium smegmatis SMR5 …, UniProt A0QSL8;P60281;A0QS66;A0QWT1;A0QW02;A0QZ11;A0R561;A4ZHT0;A0QZ41 …, ||R214A;PafB:R211A). The experiment in a line: EMSA; 5 uM dT12 ssDNA; PafBC variant does not join RNAP-DNA; ssDNA EMSA: 22.5 mM Hepes-KOH pH 7.8, 135 mM NaCl, 20 mM KCl, 5 mM MgCl2, 1 mM DTT, 37 C 15 min, 10 nM DNA, 0-16 uM PafBC; RNAP EMSA: 20 mM Hepes-NaOH pH 8, 100 mM K-acetate, 36 mM NaCl, 10 mM MgCl2, 2 mM DTT, 37 C 30 min. The note with it: protein: native;recombinant;recombinant; tags: TwinStrep on RpoC; His6 removed from SigA;His6-thioredoxin removed by TEV;C-terminal Strep on PafC; chain copies: 2;1;1;1;1;1;1;1;1; label: 5' FAM on strand 1; blunt, internal non-complementary bubble 13 nt.

In data set [5] the target is RNAP-sigmaA holoenzyme with RbpA;CarD;PafBC, PafB R181A/R204A/R208A (Mycobacterium smegmatis SMR5 …, UniProt A0QSL8;P60281;A0QS66;A0QWT1;A0QW02;A0QZ11;A0R561;A4ZHT0;A0QZ41 …, ||R204A;R208A;PafB:R181A). The data set is described as above. The note with it: protein: native;recombinant;recombinant; tags: TwinStrep on RpoC; His6 removed from SigA;His6-thioredoxin removed by TEV;C-terminal Strep on PafC; chain copies: 2;1;1;1;1;1;1;1;1; label: 5' FAM on strand 1; blunt, internal non-complementary bubble 13 nt.

For data set [6], the target named is RNAP-sigmaA holoenzyme with RbpA;CarD;PafBC, PafB Y196A (Mycobacterium smegmatis SMR5 …, UniProt A0QSL8;P60281;A0QS66;A0QWT1;A0QW02;A0QZ11;A0R561;A4ZHT0;A0QZ41 …, ||Y196A). The experiment in a line: EMSA; 5 uM dT12 ssDNA; retains association with RNAP; ssDNA EMSA: 22.5 mM Hepes-KOH pH 7.8, 135 mM NaCl, 20 mM KCl, 5 mM MgCl2, 1 mM DTT, 37 C 15 min, 10 nM DNA, 0-16 uM PafBC; RNAP EMSA: 20 mM Hepes-NaOH pH 8, 100 mM K-acetate, 36 mM NaCl, 10 mM MgCl2, 2 mM DTT, 37 C 30 min. To be noted: protein: native;recombinant;recombinant; tags: TwinStrep on RpoC; His6 removed from SigA;His6-thioredoxin removed by TEV;C-terminal Strep on PafC; chain copies: 2;1;1;1;1;1;1;1;1; label: 5' FAM on strand 1; blunt, internal non-complementary bubble 13 nt.

The target in data set [7] is RNAP-sigmaA holoenzyme with RbpA;CarD;PafBC WT (Mycobacterium smegmatis SMR5 …, UniProt A0QSL8;P60281;A0QS66;A0QWT1;A0QW02;A0QZ11;A0R561;A4ZHT0;A0QZ41 …, ||). The experiment in a line: EMSA; ssDNA …; no effect of CarD on complex formation; ssDNA EMSA: 22.5 mM Hepes-KOH pH 7.8, 135 mM NaCl, 20 mM KCl, 5 mM MgCl2, 1 mM DTT, 37 C 15 min, 10 nM DNA, 0-16 uM PafBC; RNAP EMSA: 20 mM Hepes-NaOH pH 8, 100 mM K-acetate, 36 mM NaCl, 10 mM MgCl2, 2 mM DTT, 37 C 30 min. The note with it: protein: native;recombinant;recombinant; tags: TwinStrep on RpoC; His6 removed from SigA;His6-thioredoxin removed by TEV;C-terminal Strep on PafC; chain copies: 2;1;1;1;1;1;1;1;1; label: 5' FAM on strand 1; blunt, internal non-complementary bubble 13 nt.

Data set [8] deals with RNAP-sigmaA holoenzyme with RbpA;CarD;PafBC, PafC WYL variant (Mycobacterium smegmatis SMR5 …, UniProt A0QSL8;P60281;A0QS66;A0QWT1;A0QW02;A0QZ11;A0R561;A4ZHT0;A0QZ41 …, ||R201A;R204A). The experiment in a line: EMSA; 5 uM dT12 ssDNA; efficiency similar to WT; ssDNA EMSA: 22.5 mM Hepes-KOH pH 7.8, 135 mM NaCl, 20 mM KCl, 5 mM MgCl2, 1 mM DTT, 37 C 15 min, 10 nM DNA, 0-16 uM PafBC; RNAP EMSA: 20 mM Hepes-NaOH pH 8, 100 mM K-acetate, 36 mM NaCl, 10 mM MgCl2, 2 mM DTT, 37 C 30 min. The note with it: protein: native;recombinant;recombinant; tags: TwinStrep on RpoC; His6 removed from SigA;His6-thioredoxin removed by TEV;C-terminal Strep on PafC; chain copies: 2;1;1;1;1;1;1;1;1; label: 5' FAM on strand 1; blunt, internal non-complementary bubble 13 nt.

Data set [9] concerns the target RNAP-sigmaA holoenzyme with RbpA;PafBC WT (Mycobacterium smegmatis SMR5 …, UniProt A0QSL8;P60281;A0QS66;A0QWT1;A0QW02;A0QZ11;A4ZHT0;A0QZ41 …, |). The experiment in a line: EMSA; 5 uM dT12 ssDNA; PafBC shifts RNAP-DNA band; ssDNA EMSA: 22.5 mM Hepes-KOH pH 7.8, 135 mM NaCl, 20 mM KCl, 5 mM MgCl2, 1 mM DTT, 37 C 15 min, 10 nM DNA, 0-16 uM PafBC; RNAP EMSA: 20 mM Hepes-NaOH pH 8, 100 mM K-acetate, 36 mM NaCl, 10 mM MgCl2, 2 mM DTT, 37 C 30 min. To be noted: protein: native;recombinant; tags: TwinStrep on RpoC; His6 removed from SigA;C-terminal Strep on PafC; chain copies: 2;1;1;1;1;1;1;1; label: 5' FAM on strand 1; blunt, internal non-complementary bubble 13 nt.

On to GGGCCCGGGCCCGGTATATCCGGGCCCGGGCCC (structured_DNA) [hairpin DNA control], for which the binding result with PafBC WT [1] (hairpin, 14 bp stem, 5 nt loop) was “no binding”.
For the molecule TTGTTGTTGTT (ssDNA) [cryo-EM ssDNA ligand], the binding result with PafBC WT, cryo-EM sample is “binds”.

B1: nonspecific DNA with bubble (dsDNA)
DNA 1: GTCGTGAAGGACACCGCCGAAGCGCCCAAGACGGCCGACGAGAAAGCCGCCGAGGCCACCGGGCCCAGCAAGGTCAA
DNA 2: TTGACCTTGCTGGGCGTCAGCATGCGAACGGCTTTCTCGTCGGCCGTCTTGGGCGCTTCGGCGGTGTCCTTCACGAC
On to B1, for which, in [2] (label: 5' FAM on strand 1, internal non-complementary bubble), the binding result is listed as “binds”.

B2: housekeeping promoter with -10 bubble (dsDNA)
DNA 1: CCCCGTTTTGGGGCAGATGCGATTCTGAAATACTGCTTTGTCTGGCTTGTCAAGTCGCTCTGGACCGGGTTGTTTTC
DNA 2: GAAAACAACCCGGTCCAGAGCGACTTGACAAGCCAGACAAAGCAGTATTAAGCTGGCAGGGTTGCCCCAAAACGGGG
Consider B2, for which the binding result in data set [2] (label: 5' FAM on strand 2, internal non-complementary bubble) is listed as “binds”.
In the case of TTTTTTTTTTTTTTTTTTTT (ssDNA) [dT20 ssDNA unlabeled], the binding result in the data set with PafBC WT [3] was “binds”.

B3: PafBC-specific promoter with -10 bubble (dsDNA)
DNA 1: TCGTCTACTGTGGTGAAGAGTTCGACCGGACTTGTCGGTGGTCTGCTCTAACGTCACGGCCAACCGATCGGAACACC
DNA 2: GGTGTTCCGATCGGTACCGGACATGTAAAGAGCAGACCACCGACAAGTCCGGTCGAACTCTTCACCACAGTAGACGA
Take B3: the binding result in data set [4] is given as “no binding”; in data set [5], “no binding”; in [2] (label: 5' FAM on strand 1, internal non-complementary bubble 13 nt) it was “binds”; in data set [6], “binds”; in data set [7] it was “binds”; in data set [8], “binds”. In addition, the binding result in data set [9] was “binds”.

B4: blocked end ssDNA (dT12 between two hairpins) (structured_DNA)
DNA: GGGCCCGGGCCCGGTATATCCGGGCCCGGGCCCTTTTTTTTTTTTCCCGGGCCCGGGCCTATATGGCCCGGGCCCGGG
In the case of B4, in the data set with PafBC WT [1] (two hairpins, 14 bp stems, 5 nt loops), the binding result was “binds”.
